Measured values from the Immune Epitope Database (IEDB).

What was measured:
HLA-B*08:01 [1] = experiment: IEDB peptide-MHC binding, purified MHC/competitive/fluorescence; ≥ and ≤ were set here for values at or beyond the usual limits of such assays
HLA-B*15:01 = experiment: as above
HLA-B*07:02 [2] = experiment: as above
HLA-B*07:02 [3] = experiment: IEDB peptide-MHC binding, purified MHC/direct/fluorescence; filed as Kd, often an IC50 or EC50 that approximates it; ≥ and ≤ were set here for values at or beyond the usual limits of such assays; conditions: source organism: Mycobacterium tuberculosis variant bovis
HLA-B*51:01 = experiment: IEDB peptide-MHC binding, purified MHC/competitive/fluorescence; filed as Kd, often an IC50 or EC50 that approximates it; ≥ and ≤ were set here for values at or beyond the usual limits of such assays; conditions: source organism: Mycobacterium tuberculosis H37Rv
HLA-B*35:01 = experiment: as above; conditions: source organism: Mycobacterium tuberculosis H37Rv
HLA-A*02:01 = experiment: IEDB peptide-MHC binding, purified MHC/competitive/fluorescence; ≥ and ≤ were set here for values at or beyond the usual limits of such assays
HLA-A*03:01 = experiment: IEDB peptide-MHC binding, purified MHC/direct/fluorescence; filed as Kd, often an IC50 or EC50 that approximates it; ≥ and ≤ were set here for values at or beyond the usual limits of such assays; conditions: source organism: Mammarenavirus lassaense
HLA-A*11:01 = experiment: as above; conditions: source organism: Mammarenavirus lassaense
HLA-A*31:01 = experiment: IEDB peptide-MHC binding, purified MHC/competitive/fluorescence; filed as Kd, often an IC50 or EC50 that approximates it; ≥ and ≤ were set here for values at or beyond the usual limits of such assays; conditions: source organism: Mopeia Lassa virus reassortant 29
HLA-B*83:01 = experiment: as above; conditions: source organism: Mopeia Lassa virus reassortant 29
HLA-B*45:06 = experiment: as above; conditions: source organism: Mopeia Lassa virus reassortant 29
HLA-B*15:42 = experiment: as above; conditions: source organism: Mopeia Lassa virus reassortant 29
HLA-B*08:01 [4] = experiment: IEDB peptide-MHC binding, purified MHC/direct/fluorescence; filed as Kd, often an IC50 or EC50 that approximates it; ≥ and ≤ were set here for values at or beyond the usual limits of such assays; conditions: source organism: Mycobacterium tuberculosis str. Haarlem
HLA-B*08:02 = experiment: as above; conditions: source organism: Mycobacterium tuberculosis str. Haarlem
HLA-A*24:02 = experiment: IEDB peptide-MHC binding, purified MHC/competitive/fluorescence; ≥ and ≤ were set here for values at or beyond the usual limits of such assays; conditions: source organism: Variola virus
[5] = source organism: Vaccinia virus Copenhagen
[6] = source organism: Zaire ebolavirus

Question: Which results are given for ILRSIEGEL?
Answer: IC50 (HLA-B*08:01 [1]; [5]): ≥ 524 µM; IC50 (HLA-B*15:01; [5]): 39.8 µM; IC50 (HLA-B*07:02 [2]; [5]): 33.9 µM

Question: For INKLNGAMV, which IC50 (HLA-B*07:02 [2]; [5]) is on record?
Answer: The IC50 was at least 74.2 µM.

Question: LPAGSPVAV was tested. Which Kd (HLA-B*07:02 [3]) did it give?
Answer: Its Kd is 240 nM.

Question: What about the Kd (HLA-B*51:01) of the same sequence?
Answer: The Kd was 453 nM.

Question: And the Kd (HLA-B*35:01)?
Answer: Its Kd is 2.7 nM.

Question: For QLREAATEA, which IC50 (HLA-A*02:01; [6]) is on record?
Answer: Its IC50 is 20 µM.

Question: And the IC50 (HLA-B*08:01 [1]; [6])?
Answer: Its IC50 is at least 192 µM.

Question: What about the IC50 (HLA-B*15:01; [6]) of the same sequence?
Answer: The IC50 was 62.1 µM.

Question: What about the IC50 (HLA-B*07:02 [2]; [6]) of the same sequence?
Answer: Its IC50 is 28.2 µM.

Question: How did the Kd (HLA-A*03:01) turn out when RLKFSLSYK was run?
Answer: Its Kd is 48.4 nM.

Question: And the Kd (HLA-A*11:01)?
Answer: Its Kd is 59.7 nM.

Question: What about the Kd (HLA-A*31:01) of the same sequence?
Answer: The Kd was 7.17 nM.

Question: What about the Kd (HLA-B*83:01) of the same sequence?
Answer: Its Kd is at least 5 µM.

Question: And the Kd (HLA-B*45:06)?
Answer: The Kd was at least 5 µM.

Question: And the Kd (HLA-B*15:42)?
Answer: Its Kd is at least 5 µM.

Question: With TLRRRFAVA as the sequence, how does the Kd (HLA-B*08:01 [4]) read?
Answer: The Kd was 12 nM.

Question: And the Kd (HLA-B*08:02)?
Answer: Its Kd is at least 20 µM.

Question: What does the source list for TNQLRSVGL?
Answer: IC50 (HLA-B*08:01 [1]; [6]): 32.9 µM; IC50 (HLA-B*07:02 [2]; [6]): 64.3 µM

Question: What does the source list for WISHRPVVL?
Answer: IC50 (HLA-A*02:01; source organism: Variola virus): 1.11 µM; IC50 (HLA-B*08:01 [1]; source organism: Variola virus): 25.7 µM; IC50 (HLA-A*24:02): 21.5 µM; IC50 (HLA-B*07:02 [2]; source organism: Variola virus): 7.13 µM

Question: Which IC50 (HLA-B*08:01 [1]; source organism: Variola virus) does the source give for YLFGGFSTL here?
Answer: The IC50 was at least 273 µM.

Question: And the IC50 (HLA-B*15:01; source organism: Variola virus)?
Answer: The IC50 was 3.33 µM.

Question: What about the IC50 (HLA-B*07:02 [2]; source organism: Variola virus) of the same sequence?
Answer: Its IC50 is 7.61 µM.
